{"source": "patent US12692302B2", "about": "“Uses of IL-13 antagonists for treating atopic dermatitis” (Genentech, Inc., priority 2016, dated 2026)", "key": {"[1]": {"assay": "Clinical Study I: serum lebrikizumab pharmacokinetics", "assay_type": "in vivo, human", "settings": "AD patients; for Mean Cmax, wk1 / Mean Cmin wk12 / Mean Cmin, wk4 / Mean Cmin, wk8: serum", "experimental": "Pharmacokinetic parameters were also assessed as follows. Serum samples for analysis of lebrikizumab pharmacokinetics were obtained at Day 1 (pre-dose) and at Weeks 1, 4 (pre-dose), 6, 8 (pre-dose), 12, 16, and 20 for all dosing regimens. Serum lebrikizumab concentrations were summarized by treatment and visit using descriptive statistics for the patients that received one of the lebrikizumab treatment regimens."}, "[2]": {"system": "patients with persistent moderate to severe atopic dermatitis inadequately controlled by TCS", "assay": "Clinical Study I: safety, Weeks 0 to 20", "assay_type": "in vivo, human", "description": "Safety Follow-Up Period. All patients who completed study treatment during the placebo-controlled treatment period (Weeks 1-12) were followed for safety for an additional 8 weeks (Weeks 13-20). During this safety follow-up period, patients were no longer required to apply the topical treatment regimen as specified during the run-in and treatment periods. Instead, triamcinolone acetonide 0.1% cream and/or hydrocortisone 2.5% cream could be applied as determined by the patient and the study investigator. At each study visit the patient was required to bring their TCS containers to the study site to be weighed. Patients were encouraged to continue applying emollients at least once daily to xerotic skin. An escalation in therapy for AD was allowed at any during the study, if, in the opinion of the investigator, it was clinically indicated.\nSafety Outcome Measures. The safety outcome measures for this study were as follows: (i) frequency and severity of treatment-emergent adverse events; (ii) incidence of human anti-therapeutic antibodies (ATA) at baseline and during the study; (iii) frequency and severity of skin and other organ system infections throughout the study; the clinical definition of skin infection was as follows: the diagnosis of infection was based on the Investigator's clinical assessment including but not limited to the presence of honey-colored crusting, serous discharge, pustules, or pain at the site of rash and that may be associated with systemic features, including fever or a flare in AD disease (defined above); and (iv) incidence of disease rebound following discontinuation of study drug as assessed by the investigator; the clinical definition of disease rebound was: a significant worsening of disease severity after cessation of therapy to a severity level that is greater than prior to commencing therapy (Hijnen et al., J Eur Acad Dermatol Venereol 2007; 21(1) 85-9)."}, "[3]": {"system": "atopic dermatitis patients", "assay": "Atopic dermatitis longitudinal PK-PD model of lebrikizumab (EASI score) and simulated dosing regimens", "set-up": "species or system human", "settings": "PK-PD model fitted to EASI scores up to 12 weeks from Clinical Study I", "description": "In FIG. 5, R(t) is the EASI score; Kin0 is the baseline disease progression rate constant; kin is the disease progression rate constant with lebrikizumab and including the placebo/TCS effect; Edrug is the lebrikizumab drug effect on disease progression inhibition; Econ is the placebo/TCS effect (constant overtime); Emax is the maximum lebrikizumab drug effect on disease progression inhibition; EC50 is the lebrikizumab concentration that leads to 50% of Emax; kout is the tissue repair rate constant; R(t=0) is the baseline EASI score; IIV is the inter-individual variability; ωkout is the inter-individual variability for kout; ωEcon is the inter-individual variability for Econ; ρKoutXEcon is the correlation between kout and Econ; and σ is the residual error.\nThe model was used to simulate the predicted efficacy, e.g., EASI-75 score, of various alternative dosing regimens, for example, including but not limited to, various loading doses followed subsequently by various maintenance doses, e.g., flat doses of lebrikizumab administered at regular time intervals, or various lower flat doses or higher flat doses, or increased treatment intervals with lebrikizumab.\nThe model development began with raw pharmacokinetic and efficacy data that had been collected during the conduct of the Phase II Clinical Study I described above. […]"}, "[4]": {"system": "moderate-to-severe asthmatic patients not controlled on inhaled corticosteroids", "settings": "all doses (37.5, 125, 250 mg Q4W), cited from earlier work"}, "[5]": {"settings": "125 mg Q4W + TCS (n = 50), Weeks 0 to 20"}, "[6]": {"settings": "125 mg SD + TCS (n = 54), Weeks 0 to 20"}, "[7]": {"settings": "250 mg SD + TCS (n = 52), Weeks 0 to 20"}, "[8]": {"settings": "all lebrikizumab groups (n = 156), Weeks 0 to 20"}, "[9]": {"settings": "lebrikizumab-treated patients, all doses"}}, "note": "Like-named read-outs stand apart in the source and are kept apart here.", "data": [{"substance": "lebrikizumab: monoclonal humanized anti-IL-13 IgG4 antibody; heavy chain SEQ ID NO: 11, light chain SEQ ID NO: 12; formulated at 125 mg/mL in prefilled syringe", "values": [{"measurement": "t½ (elimination half-life)", "setting": "[1]; 125 mg Q4W subcutaneous", "result": 20.9, "unit": "days"}, {"measurement": "t½ (elimination half-life)", "setting": "[1]; 125 mg SD subcutaneous", "result": 18.5, "unit": "days"}, {"measurement": "t½ (elimination half-life)", "setting": "[1]; 250 mg SD subcutaneous", "result": 22.2, "unit": "days"}, {"measurement": "half-life", "setting": "[1]; across the dosing regimens", "result": "19 to 22", "unit": "days"}, {"measurement": "Mean Cmax, wk1", "setting": "[1]; 125 mg Q4W subcutaneous", "result": 16100, "unit": "ng/mL"}, {"measurement": "Mean Cmin wk12", "setting": "[1]; 125 mg Q4W subcutaneous", "result": 14400, "unit": "ng/mL"}, {"measurement": "Mean Cmin, wk4", "setting": "[1]; 125 mg Q4W subcutaneous", "result": 9150, "unit": "ng/mL"}, {"measurement": "Mean Cmin, wk8", "setting": "[1]; 125 mg Q4W subcutaneous", "result": 13600, "unit": "ng/mL"}, {"measurement": "Mean Cmax, wk1", "setting": "[1]; 125 mg SD subcutaneous", "result": 17000, "unit": "ng/mL"}, {"measurement": "Mean Cmin wk12", "setting": "[1]; 125 mg SD subcutaneous", "result": 2280, "unit": "ng/mL"}, {"measurement": "Mean Cmin, wk4", "setting": "[1]; 125 mg SD subcutaneous", "result": 10200, "unit": "ng/mL"}, {"measurement": "Mean Cmin, wk8", "setting": "[1]; 125 mg SD subcutaneous", "result": 4590, "unit": "ng/mL"}, {"measurement": "Mean Cmax, wk1", "setting": "[1]; 250 mg SD subcutaneous", "result": 35600, "unit": "ng/mL"}, {"measurement": "Mean Cmin wk12", "setting": "[1]; 250 mg SD subcutaneous", "result": 3770, "unit": "ng/mL"}, {"measurement": "Mean Cmin, wk4", "setting": "[1]; 250 mg SD subcutaneous", "result": 21400, "unit": "ng/mL"}, {"measurement": "Mean Cmin, wk8", "setting": "[1]; 250 mg SD subcutaneous", "result": 9530, "unit": "ng/mL"}, {"measurement": "AE leading to withdrawal from study drug, %", "setting": "[2]; [5]", "result": "(4) %"}, {"measurement": "Conjunctivitis allergic, %", "setting": "[2]; [5]", "result": "(4.0) %"}, {"measurement": "Injection site reactions, %", "setting": "[2]; [5]", "result": "(4) %"}, {"measurement": "Patients with at least one AE, %", "setting": "[2]; [5]", "result": "(54) %"}, {"measurement": "Patients with at least one serious AE, %", "setting": "[2]; [5]", "result": "(4) %"}, {"measurement": "SAE leading to withdrawal from study drug (Myopathy), %", "setting": "[2]; [5]", "result": "(2) %"}, {"measurement": "AE leading to withdrawal from study drug, %", "setting": "[2]; [6]", "result": "(2) %"}, {"measurement": "Conjunctivitis allergic, %", "setting": "[2]; [6]", "result": "(7.4) %"}, {"measurement": "Patients with at least one AE, %", "setting": "[2]; [6]", "result": "(70) %"}, {"measurement": "Patients with at least one serious AE, %", "setting": "[2]; [6]", "result": "(6) %"}, {"measurement": "AE leading to dose modification/interruption, %", "setting": "[2]; [7]", "result": "(2) %"}, {"measurement": "Conjunctival hyperaemia, %", "setting": "[2]; [7]", "result": "(1.9) %"}, {"measurement": "Conjunctivitis allergic, %", "setting": "[2]; [7]", "result": "(3.8) %"}, {"measurement": "Patients with at least one AE, %", "setting": "[2]; [7]", "result": "(75) %"}, {"measurement": "Conjunctival hyperaemia, %", "setting": "[2]; [8]", "result": "(0.6) %"}, {"measurement": "Conjunctivitis allergic, %", "setting": "[2]; [8]", "result": "(5.1) %"}, {"measurement": "Patients with at least one serious AE, %", "setting": "[2]; [8]", "result": "(3) %"}, {"measurement": "SAE leading to withdrawal from study drug (Myopathy), %", "setting": "[2]; [8]", "result": "(1) %"}, {"measurement": "Conjunctival infections, irritations and inflammations: patients with at least one AE, %", "setting": "[2]; human, in vivo", "result": "(5.8) %"}, {"measurement": "Conjunctival infections, irritations and inflammations: total number of events", "setting": "[2]; human, in vivo", "result": 10}, {"measurement": "Herpes infections: total number of infections related to study drug (investigator-assessed)", "setting": "[2]; human, in vivo", "result": 0}, {"measurement": "Infections, %", "setting": "[2]; human, in vivo", "result": "(36) %"}, {"measurement": "maximum eosinophil count in the five patients with eosinophil-associated AEs", "setting": "[2]; human, in vivo", "result": "0.91-3.2 ×10^9/L"}, {"measurement": "Eosinophil-associated AEs, % of patients", "setting": "[2]; [9]", "result": 3.2, "unit": "%"}, {"measurement": "Eosinophil-associated AEs, number of patients", "setting": "[2]; [9]", "result": "five"}, {"measurement": "patients with a conjunctivitis AE, %", "setting": "[2]; pooled lebrikizumab group", "result": 9.6, "unit": "%"}, {"measurement": "deaths, events of anaphylaxis, malignancy, or protocol-defined parasitic or targeted intracellular infections of interest", "setting": "[2]; whole study", "result": "no deaths"}, {"measurement": "EC50 (lebrikizumab concentration that leads to 50% of Emax), estimate", "setting": "[3]", "result": 8.08, "unit": "µg/mL"}, {"measurement": "Emax (maximum lebrikizumab drug effect on disease progression inhibition), estimate", "setting": "[3]", "result": 0.729}, {"measurement": "reduction in the rate of asthma exacerbations", "setting": "[4]; biomarker-high (serum periostin-high) patients", "result": 60, "unit": "%"}, {"measurement": "reduction in the rate of asthma exacerbations", "setting": "[4]; biomarker-low (serum periostin-low) patients", "result": 5, "unit": "%"}]}]}
